Experimental findings from FireProtDB (doi:10.1093/jb/mvq079) are described below.

For this series the following is noted: Escherichia coli (strain K12), whole UniProt chain shown.

The term Tm denotes the temperature at the midpoint of the melting transition.

B1: Divalent-cation tolerance protein CutA wild type, P69488 (protein)
chain: MLDEKSSNTASVVVLCTAPDEATAQDLAAKVLAEKLAACATLIPGATSLYYWEGKLEQEYEVQMILKTTVSHQQALLECLKSHHPYQTPELLVLPVTHGDTDYLSWLNASLR
With B1, the “denaturant midpoint (higher = more stable)” value (pH 8, 37 °C, GdnHCl, CD, Tris-HCl, reversible: yes) amounted to 2.72 M. For the same protein, the Tm (pH 9, Thermal, DSC, glycine Buffer, transition: 2, reversible: no) was 89.9 °C.
